Results taken from patent US7081343.

Target: T7-RelA (UniProt Q04206)
Sequence (Q04206 whole entry): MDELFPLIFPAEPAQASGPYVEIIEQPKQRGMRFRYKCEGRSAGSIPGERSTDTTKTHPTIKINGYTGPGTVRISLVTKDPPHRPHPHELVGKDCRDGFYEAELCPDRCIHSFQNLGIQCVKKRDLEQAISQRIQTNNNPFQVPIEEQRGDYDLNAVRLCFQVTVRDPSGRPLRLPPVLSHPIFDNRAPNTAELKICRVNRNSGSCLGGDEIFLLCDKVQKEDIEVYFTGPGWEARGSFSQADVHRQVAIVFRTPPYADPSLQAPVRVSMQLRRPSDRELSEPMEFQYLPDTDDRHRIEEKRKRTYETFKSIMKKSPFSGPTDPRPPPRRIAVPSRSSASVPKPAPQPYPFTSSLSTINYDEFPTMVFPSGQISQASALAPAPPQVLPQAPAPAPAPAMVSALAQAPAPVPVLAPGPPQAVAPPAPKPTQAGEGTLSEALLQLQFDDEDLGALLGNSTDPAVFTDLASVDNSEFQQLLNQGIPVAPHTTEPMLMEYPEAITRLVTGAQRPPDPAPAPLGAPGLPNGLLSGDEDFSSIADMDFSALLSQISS

Row | Substance | acetylation of T7-RelA (anti-T7 immunoprecipitation, anti-acetylated lysine blot)
1 | CBP | Co-expression of either p300 or CBP with RelA produced dose related acetylation of T7-Rel A
2 | p300 | Co-expression of either p300 or CBP with RelA produced dose related acetylation of T7-Rel A
